Measured values as given in patent US20230233707A1.

Molecular target: CD40 (UniProt P25942)
Test: cell-based or functional assay

- EC50 from CD40 activation experiments (bioluminescent CD40 effector CHO cell assay): -1.47 log(µM)
Substance: LOB7/6 (antibody)
